These results are taken from article PMC8551276.

Assay [1] addresses HIV-1 HXB2 Env glycoprotein labelled with super folder GFP (GFPOPT) in the V4 loop of gp120, on pseudovirions (HIV-1 HXB2) (UniProt P04578). In words: FRET or BRET; single-virus Eapp traces, dwell times as CDF; mature virions engaged with living MT-4 T cells; room temperature. Background: In BRET a luciferase serves as donor, and the signal depends on an acceptor being close.
Assay [2] shares this target. Briefly: FRET or BRET; single-virus Eapp traces, dwell times as CDF; virions on MT-4 T cells with 100 µg/mL PGT145.
For assay [3] the target is unchanged. Briefly: FRET or BRET; single-virus Eapp traces (3 s per frame, 5 min), dwell times as cumulative distribution functions; mature virions in vitro, unliganded; room temperature.
The target is the same in assay [4]. In words: FRET or BRET.
For assay [5] the target is unchanged.
Assay [6] has as its target HIV-1 HXB2 Env glycoprotein labelled with super folder GFP (GFPOPT) in the V4 loop of gp120, on pseudovirions (HIV-1 group M subtype B, isolate HXB2) (UniProt P04578).

With “HIV-1 HXB2 Env glycoprotein labelled with super folder GFP (GFPOPT) in the V4 loop of gp120, on pseudovirions (from UniProt P04578) (complex)”, the CDF average lifetime of the high FRET regime (Env-Env interactions), virions on MT-4 T cells in assay [1] stood at 53 s. This substance registered a CDF average lifetime of the high FRET regime (Env-Env interactions), on T cells with PGT145 in assay [2] of 10 s. The substance also showed a CDF average lifetime of the high FRET regime (Env-Env interactions) in assay [3] of 68 s. For the same substance, the CDF average lifetime of the high FRET regime (Env-Env interactions), with sCD4 in assay [4] is 16 s.

On to “Human soluble CD4 recombinant protein (sCD4_(D1-D4)) (domain or fragment)”, for which, in assay [5], the CDF average lifetime of the closed Env conformation (0.12<Eapp<0.23) on mature virions with 10 µg/mL sCD4 (154 s without) stood at 75 s and the CDF average lifetime of the open Env conformation (Eapp<0.12) on mature virions with 10 µg/mL sCD4 (84 s without) worked out at 241 s.

For “anti-HIV-1 gp120 monoclonal, b12 (antibody)”, in assay [6], the CDF average lifetime of the closed Env conformation, virions on MT-4 T cells with 100 µg/mL b12 (63 s without) came out at 125 s and the CDF average lifetime of the open Env conformation, virions on MT-4 T cells with 100 µg/mL b12 (168 s without) came to 61 s.
